Source: the supplement of paper PMC5998384

Columns and labels:
HeLa Kyoto [1] = assay: solubility in G1/S (NP-40 vs SDS abundance) (log2 ratio); higher = more soluble; settings: cell cycle stage: G1/S
HeLa Kyoto [2] = assay: solubility change mitosis vs G1/S (difference of NP-40 vs SDS log2 ratios) (log2 ratio difference); higher = more soluble in mitosis
HeLa Kyoto [3] = assay: thermal stability score vs G1/S (z-score of summed log2 fold changes over temperatures); higher = more thermally stable than in G1/S
HeLa Kyoto [4] = assay: melting temperature (median over replicates), in situ; higher = more thermally stable
[5] = cell cycle stage: early G1 (4.5 h after nocodazole release)
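For melting temperature (median over replicates), in situ in this document: HeLa Kyoto cells synchronized by double thymidine or nocodazole block, proteins quantified by TMT10plex mass spectrometry, three independent biological replicates.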
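For solubility change mitosis vs G1/S (difference of NP-40 vs SDS log2 ratios) in this document: synchronized HeLa Kyoto cells (double thymidine block for G1/S, nocodazole release for mitosis), protein amounts in NP-40 versus SDS lysates quantified by mass spectrometry, three biological replicates.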
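For solubility in G1/S (NP-40 vs SDS abundance) in this document: HeLa Kyoto cells arrested at G1/S by double thymidine block, proteins quantified by TMT10plex mass spectrometry in mild NP-40 versus SDS extracts, three biological replicates.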
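For thermal stability score vs G1/S (z-score of summed log2 fold changes over temperatures) in this document: synchronized HeLa Kyoto cells, proteins quantified by TMT10plex mass spectrometry, three biological replicates, mitosis taken 0.5 h after nocodazole release, G1/S directly after double thymidine block.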

| Sequence | solubility in G1/S (log2) (HeLa Kyoto [1]) | solubility change mitosis (log2) (HeLa Kyoto [2]) | thermal stability score (HeLa Kyoto [3]; [5]) | thermal stability score (HeLa Kyoto [3]; cell cycle stage: mitosis) | melting temperature (HeLa Kyoto [4]; cell cycle stage: G1/S) [°C] | melting temperature (HeLa Kyoto [4]; cell cycle stage: mitosis) [°C] |
| --- | --- | --- | --- | --- | --- | --- |
| MRCLAARVNYKTLIIICALFTLVTVLLWNKCSSDKAIQFPRRSSSGFRVDGFEKRAAASESNNYMNHVAKQQSEEAFPQEQQKAPPVVGGFNSNVGSKVLGLKYEEIDCLINDEHTIKGRREGNEVFLPFTWVEKYFDVYGKVVQYDGYDRFEFSHSYSKVYAQRAPYHPDGVFMSFEGYNVEVRDRVKCISGVEGVPLSTQWGPQGYFYPIQIAQYGLSHYSKNLTEKPPHIEVYETAEDRDKNKPNDWTVPKGCFMANVADKSRFTNVKQFIAPETSEGVSLQLGNTKDFIISFDLKFLTNGSVSVVLETTEKNQLFTIHYVSNAQLIAFKERDIYYGIGPRTSWSTVTRDLVTDLRKGVGLSNTKAVKPTKIMPKKVVRLIAKGKGFLDNITISTTAHMAAFFAASDWLVRNQDEKGGWPIMVTRKLGEGFKSLEPGWYSAMAQGQAISTLVRAYLLTKDHIFLNSALRATAPYKFLSEQHGVKAVFMNKHDWYEEYPTTPSSFVLNGFMYSLIGLYDLKETAGEKLGKEARSLYERGMESLKAMLPLYDTGSGTIYDLRHFMLGIAPNLARWDYHTTHINQLQLLSTIDESPVFKEFVKRWKSYLKGSRAKHN [GLCE] | -0.0659 | -0.162 | -0.914 | -0.99 | 53.9 | 53.9 |
| MSPEEWTYLVVLLISIPIGFLFKKAGPGLKRWGAAAVGLGLTLFTCGPHTLHSLVTILGTWALIQAQPCSCHALALAWTFSYLLFFRALSLLGLPTPTPFTNAVQLLLTLKLVSLASEVQDLHLAQRKEMASGFSKGPTLGLLPDVPSLMETLSYSYCYVGIMTGPFFRYRTYLDWLEQPFPGAVPSLRPLLRRAWPAPLFGLLFLLSSHLFPLEAVREDAFYARPLPARLFYMIPVFFAFRMRFYVAWIAAECGCIAAGFGAYPVAAKARAGGGPTLQCPPPSSPEKAASLEYDYETIRNIDCYSTDFCVRVRDGMRYWNMTVQWWLAQYIYKSAPARSYVLRSAWTMLLSAYWHGLHPGYYLSFLTIPLCLAAEGRLESALRGRLSPGGQKAWDWVHWFLKMRAYDYMCMGFVLLSLADTLRYWASIYFCIHFLALAALGLGLALGGGSPSRRKAASQPTSLAPEKLREE [MBOAT7] | -0.091 | 0.0131 | -1.37 | -1.09 | 56.9 | 57 |
| MEPFTNDRLQLPRNMIENSMFEEEPDVVDLAKEPCLHPLEPDEVEYEPRGSRLLVRGLGEHEMEEDEEDYESSAKLLGMSFMNRSSGLRNSATGYRQSPDGACSVPSARTMVVCAFVIVVAVSVIMVIYLLPRCTFTKEGCHKKNQSIGLIQPFATNGKLFPWAQIRLPTAVVPLRYELSLHPNLTSMTFRGSVTISVQALQVTWNIILHSTGHNISRVTFMSAVSSQEKQAEILEYAYHGQIAIVAPEALLAGHNYTLKIEYSANISSSYYGFYGFSYTDESNEKKYFAATQFEPLAARSAFPCFDEPAFKATFIIKIIRDEQYTALSNMPKKSSVVLDDGLVQDEFSESVKMSTYLVAFIVGEMKNLSQDVNGTLVSIYAVPEKIGQVHYALETTVKLLEFFQNYFEIQYPLKKLDLVAIPDFEAGAMENWGLLTFREETLLYDSNTSSMADRKLVTKIIAHELAHQWFGNLVTMKWWNDLWLNEGFATFMEYFSLEKIFKELSSYEDFLDARFKTMKKDSLNSSHPISSSVQSSEQIEEMFDSLSYFKGSSLLLMLKTYLSEDVFQHAVVLYLHNHSYASIQSDDLWDSFNEVTNQTLDVKRMMKTWTLQKGFPLVTVQKKGKELFIQQERFFLNMKPEIQPSDTSYLWHIPLSYVTEGRNYSKYQSVSLLDKKSGVINLTEEVLWVKVNINMNGYYIVHYADDDWEALIHQLKINPYVLSDKDRANLINNIFELAGLGKVPLKRAFDLINYLGNENHTAPITEALFQTDLIYNLLEKLGYMDLASRLVTRVFKLLQNQIQQQTWTDEGTPSMRELRSALLEFACTHNLGNCSTTAMKLFDDWMASNGTQSLPTDVMTTVFKVGAKTDKGWSFLLGKYISIGSEAEKNKILEALASSEDVRKLYWLMKSSLNGDNFRTQKLSFIIRTVGRHFPGHLLAWDFVKENWNKLVQKFPLGSYTIQNIVAGSTYLFSTKTHLSEVQAFFENQSEATFRLRCVQEALEVIQLNIQWMEKNLKSLTWWL [LNPEP] | 0.198 | -0.15 | -1.44 | -1.44 | 56.8 | 57.1 |
| MAATLDLKSKEEKDAELDKRIEALRRKNEALIRRYQEIEEDRKKAELEGVAVTAPRKGRSVEKENVAVESEKNLGPSRRSPGTPRPPGASKGGRTPPQQGGRAGMGRASRSWEGSPGEQPRGGGAGGRGRRGRGRGSPHLSGAGDTSISDRKSKEWEERRRQNIEKMNEEMEKIAEYERNQREGVLEPNPVRNFLDDPRRRSGPLEESERDRREESRRHGRNWGGPDFERVRCGLEHERQGRRAGLGSAGDMTLSMTGRERSEYLRWKQEREKIDQERLQRHRKPTGQWRREWDAEKTDGMFKDGPVPAHEPSHRYDDQAWARPPKPPTFGEFLSQHKAEASSRRRRKSSRPQAKAAPRAYSDHDDRWETKEGAASPAPETPQPTSPETSPKETPMQPPEIPAPAHRPPEDEGEENEGEEDEEWEDISEDEEEEEIEVEEGDEEEPAQDHQAPEAAPTGIPCSEQAHGVPFSPEEPLLEPQAPGTPSSPFSPPSGHQPVSDWGEEVELNSPRTTHLAGALSPGEAWPFESV [CCDC9] | -0.239 | 0.231 | 3.28 | 2.57 | 56.3 | 56.3 |
| MNGKRPAEPGPARVGKKGKKEVMAEFSDAVTEETLKKQVAEAWSRRTPFSHEVIVMDMDPFLHCVIPNFIQSQDFLEGLQKELMNLDFHEKYNDLYKFQQSDDLKKRREPHISTLRKILFEDFRSWLSDISKIDLESTIDMSCAKYEFTDALLCHDDELEGRRIAFILYLVPPWDRSMGGTLDLYSIDEHFQPKQIVKSLIPSWNKLVFFEVSPVSFHQVSEVLSEEKSRLSISGWFHGPSLTRPPNYFEPPIPRSPHIPQDHEILYDWINPTYLDMDYQVQIQEEFEESSEILLKEFLKPEKFTKVCEALEHGHVEWSSRGPPNKRFYEKAEESKLPEILKECMKLFRSEALFLLLSNFTGLKLHFLAPSEEDEMNDKKEAETTDITEEGTSHSPPEPENNQMAISNNSQQSNEQTDPEPEENETKKESSVPMCQGELRHWKTGHYTLIHDHSKAEFALDLILYCGCEGWEPEYGGFTSYIAKGEDEELLTVNPESNSLALVYRDRETLKFVKHINHRSLEQKKTFPNRTGFWDFSFIYYE [OGFOD1] | -0.0197 | -0.151 | 1.93 | 0.186 | 53.1 | 53.6 |
| METLESELTCPICLELFEDPLLLPCAHSLCFNCAHRILVSHCATNESVESITAFQCPTCRHVITLSQRGLDGLKRNVTLQNIIDRFQKASVSGPNSPSETRRERAFDANTMTSAEKVLCQFCDQDPAQDAVKTCVTCEVSYCDECLKATHPNKKPFTGHRLIEPIPDSHIRGLMCLEHEDEKVNMYCVTDDQLICALCKLVGRHRDHQVAALSERYDKLKQNLESNLTNLIKRNTELETLLAKLIQTCQHVEVNASRQEAKLTEECDLLIEIIQQRRQIIGTKIKEGKVMRLRKLAQQIANCKQCIERSASLISQAEHSLKENDHARFLQTAKNITERVSMATASSQVLIPEINLNDTFDTFALDFSREKKLLECLDYLTAPNPPTIREELCTASYDTITVHWTSDDEFSVVSYELQYTIFTGQANVVSLCNSADSWMIVPNIKQNHYTVHGLQSGTKYIFMVKAINQAGSRSSEPGKLKTNSQPFKLDPKSAHRKLKVSHDNLTVERDESSSKKSHTPERFTSQGSYGVAGNVFIDSGRHYWEVVISGSTWYAIGLAYKSAPKHEWIGKNSASWALCRCNNNWVVRHNSKEIPIEPAPHLRRVGILLDYDNGSIAFYDALNSIHLYTFDVAFAQPVCPTFTVWNKCLTIITGLPIPDHLDCTEQLP [MID1] | -0.197 | -0.0991 | -0.257 | -0.0362 | 50.6 | 50.6 |
| MAAAALGQIWARKLLSVPWLLCGPRRYASSSFKAADLQLEMTQKPHKKPGPGEPLVFGKTFTDHMLMVEWNDKGWGQPRIQPFQNLTLHPASSSLHYSLQLFEGMKAFKGKDQQVRLFRPWLNMDRMLRSAMRLCLPSFDKLELLECIRRLIEVDKDWVPDAAGTSLYVRPVLIGNEPSLGVSQPTRALLFVILCPVGAYFPGGSVTPVSLLADPAFIRAWVGGVGNYKLGGNYGPTVLVQQEALKRGCEQVLWLYGPDHQLTEVGTMNIFVYWTHEDGVLELVTPPLNGVILPGVVRQSLLDMAQTWGEFRVVERTITMKQLLRALEEGRVREVFGSGTACQVCPVHRILYKDRNLHIPTMENGPELILRFQKELKEIQYGIRAHEWMFPV [BCAT2] | -0.077 | -0.156 | -0.771 | -0.0554 | 55.4 | 55.1 |
| MAPQSLPSSRMAPLGMLLGLLMAACFTFCLSHQNLKEFALTNPEKSSTKETERKETKAEEELDAEVLEVFHPTHEWQALQPGQAVPAGSHVRLNLQTGEREAKLQYEDKFRNNLKGKRLDINTNTYTSQDLKSALAKFKEGAEMESSKEDKARQAEVKRLFRPIEELKKDFDELNVVIETDMQIMVRLINKFNSSSSSLEEKIAALFDLEYYVHQMDNAQDLLSFGGLQVVINGLNSTEPLVKEYAAFVLGAAFSSNPKVQVEAIEGGALQKLLVILATEQPLTAKKKVLFALCSLLRHFPYAQRQFLKLGGLQVLRTLVQEKGTEVLAVRVVTLLYDLVTEKMFAEEEAELTQEMSPEKLQQYRQVHLLPGLWEQGWCEITAHLLALPEHDAREKVLQTLGVLLTTCRDRYRQDPQLGRTLASLQAEYQVLASLELQDGEDEGYFQELLGSVNSLLKELR [SIL1] | 0.7 | -0.0794 | -0.386 | 0.264 | 53.5 | 53.4 |
| MQAERGARGGRGRRPGRGRPGGDRHSERPGAAAAVARGGGGGGGGDGGGRRGRGRGRGFRGARGGRGGGGAPRGSRREPGGWGAGASAPVEDDSDAETYGEENDEQGNYSKRKIVSNWDRYQDIEKEVNNESGESQRGTDFSVLLSSAGDSFSQFRFAEEKEWDSEASCPKQNSAFYVDSELLVRALQELPLCLRLNVAAELVQGTVPLEVPQVKPKRTDDGKGLGMQLKGPLGPGGRGPIFELKSVAAGCPVLLGKDNPSPGPSRDSQKPTSPLQSAGDHLEEELDLLLNLDAPIKEGDNILPDQTSQDLKSKEDGEVVQEEEVCAKPSVTEEKNMEPEQPSTSKNVTEEELEDWLDSMIS [AVEN] | 0.312 | 0.0958 | -0.264 | -2.4 | 52.9 | 52.6 |
| MAQALSEEEFQRMQAQLLELRTNNYQLSDELRKNGVELTSLRQKVAYLDKEFSKAQKALSKSKKAQEVEVLLSENEMLQAKLHSQEEDFRLQNSTLMAEFSKLCSQMEQLEQENQQLKEGAAGAGVAQAGPLVDGELLRLQAENTALQKNVAALQERYGKEAGKFSAVSEGQGDPPGGLAPTVLAPMPLAEVELKWEMEKEEKRLLWEQLQGLESSKQAETSRLQEELAKLSEKLKKKQESFCRLQTEKETLFNDSRNKIEELQQRKEADHKAQLARTQKLQQELEAANQSLAELRDQRQGERLEHAAALRALQDQVSIQSADAQEQVEGLLAENNALRTSLAALEQIQTAKTQELNMLREQTTGLAAELQQQQAEYEDLMGQKDDLNSQLQESLRANSRLLEQLQEIGQEKEQLTQELQEARKSAEKRKAMLDELAMETLQEKSQHKEELGAVRLRHEKEVLGVRARYERELRELHEDKKRQEEELRGQIREEKARTRELETLQQTVEELQAQVHSMDGAKGWFERRLKEAEESLQQQQQEQEEALKQCREQHAAELKGKEEELQDVRDQLEQAQEERDCHLKTISSLKQEVKDTVDGQRILEKKGSAALKDLKRQLHLERKRADKLQERLQDILTNSKSRSGLEELVLSEMNSPSRTQTGDSSSISSFSYREILREKESSAVPARSLSSSPQAQPPRPAELSDEEVAELFQRLAETQQEKWMLEEKVKHLEVSSASMAEDLCRKSAIIETYVMDSRIDVSVAAGHTDRSGLGSVLRDLVKPGDENLREMNKKLQNMLEEQLTKNMHLHKDMEVLSQEIVRLSKECVGPPDPDLEPGETS [GRIPAP1] | 0.476 | -0.112 | 0.674 | -0.142 | 49.3 | 49.8 |
